The domain aggregation screens of Martell et al. (2025)

Experiment: soluble fraction after stress (log2 fold change); higher = more stays soluble; pooled small domains, quantitative proteomics
Conditions: stress: 50 degC
How it was run: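 After stress at 50°C, the amount of each protein still soluble was measured. This was done on pooled custom libraries of small protein domains, using high-throughput quantitative proteomics. The figure given is a base-two log fold change and stands for aggregation propensity, with higher values meaning more protein stays in solution.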

HMNEWSIDINLADEKQWTAKTKLSPAIIQNIIRYKNYLGGFTNLNQIKKVYGFTEANYYLLKPHLQLGK
soluble fraction (log2): -0.909

HMNFDLDSFKQRMTLDGLYFGNEKQDVIALNNLSERYQLTWFDVYQLAKETSSNHKILPKRILVKLQQ
soluble fraction (log2): -1.07

HMNFEIEVTENGKRIDSYLAEELDLSRSKVQKLIKQELVTVNGKVVSNNYNVKLGDTILVNDD
soluble fraction (log2): 0.0352

HMNFFQEIGNSILIELNKKNWTQSMFAHKIGVSDEVFKQIVQGKKALNAVEIAKIANTLDVDPEKLLRK
soluble fraction (log2): -0.191

HMNFTEAEQRFHFLEDQRQRGVLSLEQYRAELAQLRVTDAWGRLWMLQEQTGQWFVFHEGQWRPSQ
soluble fraction (log2): -0.124

HMNGEDVTDAIRLPQISQYASVVSAYPGVRAFLLEMQRDFARKGSVIMDGRDIGTVVLPEAEVKIFLT
soluble fraction (log2): -0.025

HMNGGPHYLRDVRTSLGLSQADLAKAVGTSANMIHYLESGERALTLKWIRRISEALNVSPMRLIN
soluble fraction (log2): -1.6

HMNGLPDLSRYTGVSIVDGLASVGSDSSFAYRAKIAETLGISDYKGSAGQNLEMIRKLGGKV
soluble fraction (log2): -0.291

HMNGTGSVYKLSGKRRNPWRAVVTNGWAYNEEKGKLVQNRVTIGYYHTRDEAIQAIANYNSSP
soluble fraction (log2): -1.52

HMNGVFIMHTPDGKVLRTEEGEEAVITLFNWSGQLLWSKTSLGQLPLPEGTQGVLQVQYKSGDQHTIKT
soluble fraction (log2): -0.267

HMNHAPSLMRKIRRGLKEGRNPDDLLVNAKSISDYYYRSLSFYLLAPHFSSKSKQYKQVISLANS
soluble fraction (log2): 0.036

HMNHHTEQQLKALSNKVKDHRMRMRLLAVAHFKAGKNKADVARTLNVSRRMVNEWVANYFKGGVSALES
soluble fraction (log2): -3.6

HMNHLLYPNPANNFIWIKNSTSNTAVIYNLQGVMSKVEVSEEGKIDISRFSPGLYMIKQGERIYKFTIA
soluble fraction (log2): -1.34

HMNHLSYEQRLKIKEMLDGGFKKIDIARALGVHNATIYREIERGSVNGIYNPNKSEEQYRDHLSEK
soluble fraction (log2): 0.255

HMNHYIGVDRAKEIALNHANLSETDVVFTKEKLENDDGGAEYEIEFHSGRTEYDYTIDAASGNIIEYDVDY
soluble fraction (log2): 0.421

HMNIDGLIGKKALVTADIDNVNSKGQIKINGLEWTARSVDDEPIPMGTEVEITAISGVKAIVRKG
soluble fraction (log2): 0.168

HMNIEANLEDILRRAMPSAAKLILENSLNINKIIGTGKEGRITKGDVLLYLKDKNLILENILN
soluble fraction (log2): -0.173

HMNIEEAESILKEIKTVLTDKEYEVYTLRAKGFTYQEIASLLNTTTKSVDGALSRIKTKINNIK
soluble fraction (log2): 0.0839

HMNIFKLYEENIGPLTPMIADILKEDEAEFPDYWIREAIEIAVKKNARNWKYVHAVLESWQKE
soluble fraction (log2): -3.38

HMNILKAPMPGLILDVIVKESDLVKKGDPVIILEAMKMENILSSPVDGIVKEIKVNPQQTVEKNNTLIKFE
soluble fraction (log2): -0.0546

HMNILNFSENIIKLRHKKGITQEELADFVGVTKASVSKWETKQSLPDIMLLPRLAAYFDVTVDELLGYEP
soluble fraction (log2): 0.0236

HMNINHEINIKSKKKISILENNPNLSQFYLTKNPDQYNYNLVFSDKSELNKLKEKLESDNEVEDIDIRYG
soluble fraction (log2): 0.06

HMNINTEMEKVSYSLGVNIASSLKQQGWELDAKSLSDAFVDVFNGNKLLIDEKEASSILQNYQQKIANK
soluble fraction (log2): -0.144

HMNIQKYFAGREQFIELLEAVGIRTLEQFASADPSTVLPELHQAKRMLKLQTEIPSAPVFREWVNQALS
soluble fraction (log2): -0.237

HMNIQPAMLNAANGGVAWKERGISMSQIMKRNAHTAEGSQKLWDYAFENFFQKNIDAGNIRDDR
soluble fraction (log2): 0.0644

HMNIVKGDTTANVRVVQQRLYNLGYYTYKVDGIWGTRTKTAVKKFQKDKGLVADGIVGAKTEKALGITLT
soluble fraction (log2): -1.29

HMNIVVSSIDSNSFEIVNKETGEQAVISYDKETKKGFVLINGVKKEFFQDGNKVYYDGYVIAE
soluble fraction (log2): 0.227

HMNKDEFLNELKSYLSILEDEEQADILEEYTQHIDMKISTGLSEAEAIRDFGNVSELAAQILEAY
soluble fraction (log2): -0.222

HMNKIGTIVSINGPIVKTAGDVGFVMHEMVYVGKEKLVGEVIGLTTDFTIVEVYEETSGIKPGETIEGT
soluble fraction (log2): -1.5

HMNKKEIISVLEKIIPPSQIKNINIFGSELVIDLNIDNPSLHAKKKLEKSIMSSFDENLKIIVNFSVE
soluble fraction (log2): -0.00924

HMNKLSISALAETVSTKRKEKSMTQQDLSDATGINRALISRLEQKDFIPSIPQLEKLEEILGFELEEVF
soluble fraction (log2): -0.0428

HMNKMHKLPSVSEILNKVRLQKIHNESFIKFKIKEEIDRYRKLAKKDQLFLSRDEITYEIIEKLLNFSMPS
soluble fraction (log2): -2.57

HMNKMIDAPDLTGLSLEDAKLVLEANKLQLGTVSHEPSDKPEDVVISQDPMEGQEIQQGGKVNLVVSYGD
soluble fraction (log2): -0.0696

HMNKNNLRNVSSKIRKSRRVLNLSQAELSKKLDISPSYLNLIESGKRPITVPLLIKLGNILGISLKDL
soluble fraction (log2): -1.27

HMNKNQIGTNAGIVWKLLSDNVHWEYDKLKHASGLSDRDLNAAIGWLAREDKIDFDIDEQHDRLFL
soluble fraction (log2): -0.395

HMNKPKIIINSVDDSVFSDYVKDSLSIAEVARSIGIDNNKINTSVYREIHKRIDSLKLDTSHFTGGAWN
soluble fraction (log2): -0.174

HMNKPLFVYPNPVHQGKINLSKATNFMVVDLLGQTVNKTNYGKDFSIDNLPNGVYFIKTTEGEIIKFMK
soluble fraction (log2): -0.696

HMNKQEFLNTLRIIFKKANVLDVESIIDVYEEHFAVGYEKGLNDEQIIKSLGTPKEIYTSYVEAGI
soluble fraction (log2): -0.615
